Publication PMC6821881, “Development of a Potent and Protective Germline-Like Antibody Lineage Against Zika Virus in a Convalescent Human” (Frontiers in Immunology, 2019)

Columns and labels:
[1] = target: T1, ZIKV E protein (GZ01) (Zika virus, isolate GZ01 (KU820898)); assay: ELISA; E protein or E DIII protein captured separately onto ELISA plates overnight at 4°C; each mAb (full-length IgG) serially diluted and applied; detected with anti-human IgG-HRP and TMB; EC50 by dose-response stimulation model; details: both partners purified
T1 construct: also called full-length E; surface envelope glycoprotein (E); source: E. coli BL21 (RIL), pET28a, IPTG-induced; inclusion bodies solubilized and re-folded

[2] = target: T2, ZIKV E DIII protein (residues 301-403) (Zika virus, isolate GZ01 (KU820898)); assay: as above; details: both partners purified
T2 construct: source: E. coli BL21 (RIL), pET28a, IPTG-induced; inclusion bodies solubilized and re-folded

B1: 2L-1 (S31N+A91S) (antibody, V domains shown)
VH: EVQLVQSGAEVKKPGASVKVSCKASGYTFTSGHTFPSYDINWVRQATGQGLEWMGWMNPNRGNTGYAQKFQGRVTMTRNTSINTAYMELSSLRSEDTAVYYCARVRSGTNYGSYYYYYYGMDVWGQGTTVTVSS
VL: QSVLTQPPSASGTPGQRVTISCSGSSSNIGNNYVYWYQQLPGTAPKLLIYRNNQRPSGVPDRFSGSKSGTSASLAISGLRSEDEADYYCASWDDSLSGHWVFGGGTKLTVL
notes: also called double mutation (S31N+A91S) into 2L-1; source: HEK 293T, transiently co-transfected, purified from supernatant (protein A agarose)
B1: binds [1]; binds [2].

B2: 2H-6 (antibody, V domains shown)
VH: EVQLVQSGAEVKKPGASVKVSCKASGYTFTSYDVNWVRQATGQGLEWMGWLNPNSGNTGYAEKFQGRVTMTRNTSISTAYMELSSLRSEDTAVYYCARVSSGSYYGSYYYYYYGMDVWGQGTTVTVSS
VL: SYELTQPPSASGTPGQRVTISCSGSSSNIGNNYVHWYQQLPGSAPKLLIYRNNQRPSGVPDRFSGSKSGTSGSLAISGLRSEDEADYYCASWDDSLSGHWVFGGGTKVTVL
notes: also called ZK2B10 heavy chain somatic variant 2H-6; source: HEK 293T, transiently co-transfected, purified from supernatant (protein A agarose)
B2: binds [1]; binds [2].

B3: 2H-15 (antibody, V domains shown)
VH: EVQLVQSGAEVKKPGASVKVSCKASGYTFTSYDVNWVRQATGQGLEWMGWMNPNSGNTGYAQKFQGRVTMTRNTSISTAYMELSSLRSEDTAVYYCARVSSGSYYGSYYYYYYGMDVWGQGTTVTVSS
VL: SYELTQPPSASGTPGQRVTISCSGSSSNIGNNYVHWYQQLPGSAPKLLIYRNNQRPSGVPDRFSGSKSGTSGSLAISGLRSEDEADYYCASWDDSLSGHWVFGGGTKVTVL
notes: also called ZK2B10 heavy chain somatic variant 2H-15; source: HEK 293T, transiently co-transfected, purified from supernatant (protein A agarose)
B3: binds [1]; binds [2].

B4: ZK2B10 (antibody, V domains shown)
VH: EVQLVQSGAEVKKPGASVKVSCKASGYTFTSGHTFPSYDINWVRQATGQGLEWMGWMNPNRGNTGYAQKFQGRVTMTRNTSINTAYMELSSLRSEDTAVYYCARVRSGTNYGSYYYYYYGMDVWGQGTTVTVSS
VL: SYELTQPPSASGTPGQRVTISCSGSSSNIGNNYVHWYQQLPGSAPKLLIYRNNQRPSGVPDRFSGSKSGTSGSLAISGLRSEDEADYYCASWDDSLSGHWVFGGGTKVTVL
notes: also called WT ZK2B10; wild-type (WT) ZK2B10; source: HEK 293T, transiently co-transfected, purified from supernatant (protein A agarose)
B4: binds [2].

B5: 2H-5 (antibody, V domains shown)
VH: QVQLVQSGAEVKKPGASVNVSCKASGYTFTMYDINWVRQTTGQGLEWMGWMNPNSGNTGYAQKFQGRVTMTRNTSISTAYMELSSLRSEDTAVYYCARVSSGSYYGSYYYYYYGMDVWGQGTTVTVSS
VL: SYELTQPPSASGTPGQRVTISCSGSSSNIGNNYVHWYQQLPGSAPKLLIYRNNQRPSGVPDRFSGSKSGTSGSLAISGLRSEDEADYYCASWDDSLSGHWVFGGGTKVTVL
notes: also called ZK2B10 heavy chain somatic variant 2H-5; source: HEK 293T, transiently co-transfected, purified from supernatant (protein A agarose)
B5: binds [1]; binds [2].

B6: 2H-16 (antibody, V domains shown)
VH: QVQLVQSGAEVKKPGASVKVSCKASGYTFTSYDINWVRQATGQGLEWMGWMNPNSGNTGCAQKFQGRVTMTRNTSISTAYMELSSLRSEDTAVYYCARVSSGSYYGSYYYYYYGMDVWGQGTTVTVSS
VL: SYELTQPPSASGTPGQRVTISCSGSSSNIGNNYVHWYQQLPGSAPKLLIYRNNQRPSGVPDRFSGSKSGTSGSLAISGLRSEDEADYYCASWDDSLSGHWVFGGGTKVTVL
notes: also called ZK2B10 heavy chain somatic variant 2H-16; source: HEK 293T, transiently co-transfected, purified from supernatant (protein A agarose)
B6: binds [1]; binds [2].

B7: 2H-4 (antibody, V domains shown)
VH: QVQLVQSGREVKKPGASVKVSCKGSGYTFTSYDINWVRQAPGQGLEWMGWMNPNSGNTGYAQKFQGRVTMTRNTSISTAYMELSSLRSGDTAVYYCARVSSGSYYGSYYYYYYGMDVWGQGTTVTVSS
VL: SYELTQPPSASGTPGQRVTISCSGSSSNIGNNYVHWYQQLPGSAPKLLIYRNNQRPSGVPDRFSGSKSGTSGSLAISGLRSEDEADYYCASWDDSLSGHWVFGGGTKVTVL
notes: also called ZK2B10 heavy chain somatic variant 2H-4; source: HEK 293T, transiently co-transfected, purified from supernatant (protein A agarose)
B7: binds [1]; binds [2].

B8: 2H-9 (antibody, V domains shown)
VH: EVQLVQSGGKVVELGASVKVSCKASGYTFTTYDINWVRQATGQGLEWMGWMNPNSGNTGYAQKFQGRVTMTRNTSISTAYMELSSLRSEDTAVYYCARVSSGSYYGSYYYYYYGMDVWGQGTTVTVSS
VL: SYELTQPPSASGTPGQRVTISCSGSSSNIGNNYVHWYQQLPGSAPKLLIYRNNQRPSGVPDRFSGSKSGTSGSLAISGLRSEDEADYYCASWDDSLSGHWVFGGGTKVTVL
notes: also called ZK2B10 heavy chain somatic variant 2H-9; source: HEK 293T, transiently co-transfected, purified from supernatant (protein A agarose)
B8: binds [1]; binds [2].

B9: 2H-10 (antibody, V domains shown)
VH: QVQLVQSGVEVKKPGASVEVSCQASGITSTSYDINWVRQANGQGLEWMGWMNPNSGNTGYAQKFQGRVTMTRNTSISTAYMELSSLRSEDTAVYYCARVSSGSYYGSYYYYYYGMDVWGQGTTVTVSS
VL: SYELTQPPSASGTPGQRVTISCSGSSSNIGNNYVHWYQQLPGSAPKLLIYRNNQRPSGVPDRFSGSKSGTSGSLAISGLRSEDEADYYCASWDDSLSGHWVFGGGTKVTVL
notes: also called ZK2B10 heavy chain somatic variant 2H-10; source: HEK 293T, transiently co-transfected, purified from supernatant (protein A agarose)
B9: binds [1]; binds [2].
